Measurements reported in PMC7205207, “Modeling and mitigation of high-concentration antibody viscosity through structure-based computer-aided protein design” (PLoS ONE, 2020).
Where a chain is given by its changes, count along the chain named. Names may count otherwise.

B1: R2-001 (antibody, V domains shown)
VH: EVQLLQSGGGLVKPGGSLRLSCAASGFTFSSYAMSWVRQAPGKGLEWVSYISDDGSLKYYADSVKGRFTISRDNSKNTLYLQMNSLRAEDTAVYYCARHPYWYGGQLDLWGQGTLVTVSS
VL: SYVLTQPPSVSVAPGKTARITCSGDSLGSYFVHWYQQKPGQSPVLVIYDDSKRPSGIPERFSGSNSGNTATLTISGTQAMDEADYYCSAFTHNSDVFGGGTKLTVL
notes: R2-001_HC: as the VH of m17 (R1-016), on which R2-001 was built; R2-001_LC: as the VL of m17 (R1-016) with FW1 changed to that of IGLV3-21*01; only the variable regions are written; also called round 2 parental R2-001; R2-001_HC with R2-001_LC; source: HEK293, transient, purified from conditioned medium (protein A, TMAE, HIC)
B2: R2-007 (antibody, V domains shown)
VH: B1 VH
VL: B1 VL with S64K
notes: as the VH of m20 (R2-001_HC); as the VL of m20 (R2-001_LC) with S65K (Kabat); only the variable regions are written; source: HEK293, transient, purified from conditioned medium (protein A, TMAE, HIC)
B3: R2-011 (antibody, V domains shown)
VH: B1 VH with Q106K
VL: B1 VL
notes: as the VH of m20 (R2-001_HC) with Q100bK; as the VL of m20 (R2-001_LC); only the variable regions are written; source: HEK293, transient, purified from conditioned medium (protein A, TMAE, HIC)
B4: R1-004 (antibody, V domains shown)
VH: B1 VH with Q6E, K13Q, A23R
VL: B1 VL with V3E, A13S, K16Q, R19S, K52N
notes: VL of AB-001 (AB-001_LC); only the variable regions are written; source: HEK293, transient, purified from conditioned medium (protein A, TMAE, HIC)
B5: R2-015 (antibody, V domains shown)
VH: B1 VH with D62N
VL: B1 VL
notes: as the VH of m20 (R2-001_HC) with D61N; as the VL of m20 (R2-001_LC); only the variable regions are written; source: HEK293, transient, purified from conditioned medium (protein A, TMAE, HIC)
B6: R2-022 (antibody, V domains shown)
VH: B1 VH
VL: B1 VL with D95N
notes: as the VH of m20 (R2-001_HC); as the VL of m20 (R2-001_LC) with D96N (Kabat); only the variable regions are written; source: HEK293, transient, purified from conditioned medium (protein A, TMAE, HIC)
B7: R1-011 (antibody, V domains shown)
VH: B1 VH with Q6E, K13Q, R98K
VL: B1 VL with V3E, A13S, K16Q, R19S, K52N, D95N
notes: VH of AB-001 (AB-001_HC); only the variable regions are written; source: HEK293, transient, purified from conditioned medium (protein A, TMAE, HIC)
B8: R2-005 (antibody, V domains shown)
VH: B1 VH
VL: B1 VL with Y48R
notes: as the VH of m20 (R2-001_HC); as the VL of m20 (R2-001_LC) with Y49R (Kabat); only the variable regions are written; source: HEK293, transient, purified from conditioned medium (protein A, TMAE, HIC)
B9: R2-013 (antibody, V domains shown)
VH: B1 VH with D53N
VL: B1 VL
notes: as the VH of m20 (R2-001_HC) with D52aN; as the VL of m20 (R2-001_LC); only the variable regions are written; source: HEK293, transient, purified from conditioned medium (protein A, TMAE, HIC)
B10: R2-020 (antibody, V domains shown)
VH: B1 VH
VL: B1 VL with D50N
notes: as the VH of m20 (R2-001_HC); as the VL of m20 (R2-001_LC) with D51N (Kabat); only the variable regions are written; source: HEK293, transient, purified from conditioned medium (protein A, TMAE, HIC)
B11: R1-018 (antibody, V domains shown)
VH: B1 VH with Q6E, K13Q, Q106R
VL: B1 VL with V3E, A13S, K16Q, T17R, R19S, K52N
notes: only the variable regions are written; source: HEK293, transient, purified from conditioned medium (protein A, TMAE, HIC)
B12: R1-003 (antibody, V domains shown)
VH: B1 VH with Q6E
VL: B1 VL with V3E, A13S, K16Q, R19S, K52N
notes: as for B4
B13: R1-005 (antibody, V domains shown)
VH: B1 VH with Q6E, K13Q, D53N
VL: B1 VL with V3E, A13S, K16Q, R19S, K52N
notes: as for B4
B14: R2-017 (antibody, V domains shown)
VH: B1 VH with D108Y
VL: B1 VL
notes: as the VH of m20 (R2-001_HC) with D101Y; as the VL of m20 (R2-001_LC); only the variable regions are written; source: HEK293, transient, purified from conditioned medium (protein A, TMAE, HIC)
B15: R1-014 (antibody, V domains shown)
VH: B1 VH
VL: B1 VL with V3E, A13S, K16Q, T17R, R19S, K52N
notes: as for B11
B16: R1-008 (antibody, V domains shown)
VH: B1 VH with Q6E, K13Q, R98K
VL: B1 VL with A13S, K16Q, R19S, K52N
notes: VH of AB-001 (AB-001_HC); Kabat position; only the variable regions are written; source: HEK293, transient, purified from conditioned medium (protein A, TMAE, HIC)
B17: R2-019 (antibody, V domains shown)
VH: B1 VH
VL: B1 VL with D49L
notes: as the VH of m20 (R2-001_HC); as the VL of m20 (R2-001_LC) with D50L (Kabat); only the variable regions are written; source: HEK293, transient, purified from conditioned medium (protein A, TMAE, HIC)
B18: R1-015 (antibody, V domains shown)
VH: B1 VH
VL: B1 VL with V3E, A13S, K16Q, R19S, K52N, D95N
notes: as for B11

Target: T1, human PDGF-BB (platelet derived growth factor B homodimer) (human, UniProt P01127)
T1 construct: Platelet derived growth factor B, human, homodimer, bought from PeproTech; the printed catalogue number may stand for 100-14B; source: bought: PeproTech, Catalog 100-148
T1 sequence (P01127 82-190): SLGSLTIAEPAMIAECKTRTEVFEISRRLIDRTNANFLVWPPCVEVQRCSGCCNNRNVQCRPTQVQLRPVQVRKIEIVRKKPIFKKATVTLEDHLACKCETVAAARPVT
Assay: SPR; Biacore T200, off-rate screen; antibody captured (~70 to 100 RU) by anti-human IgG amine-coupled to a CM5 chip; human PDGF-BB injected at a single 2.5 nM for 170 s, dissociation 300 s; HBS-EP+ N (10 mM HEPES, 500 mM NaCl, 3 mM EDTA, 0.05% Tween20, pH 7.4); 25 C
Conditions: both partners purified
B1 showed a koff of 0.000417 s⁻¹. For B2, the koff was 0.000401 s⁻¹. With B3 the koff was 0.000414 s⁻¹. With B4 the koff was 0.000258 s⁻¹. B5 gave a koff of 0.000834 s⁻¹. B6 gave a koff of 0.000361 s⁻¹. With B7 the koff was 0.00086 s⁻¹. In the case of B8, the koff is reported as 0.000348 s⁻¹. B9 showed a koff of 0.000344 s⁻¹. With B10 the koff was 0.000386 s⁻¹. Work on B11 yielded a koff of 0.000419 s⁻¹. In the case of B12, the koff is reported as 0.000443 s⁻¹. In the case of B13, the koff is reported as 0.000381 s⁻¹. Work on B14 yielded a koff of 0.000673 s⁻¹. Binder B15 has a koff of 0.000405 s⁻¹. Binder B16 has a koff of 0.000533 s⁻¹. For B17, the koff was 0.000673 s⁻¹. Work on B18 yielded a koff of 0.000752 s⁻¹.

Tested on: not listed separately
Assay: AC-SINS; self-association assay, as in Avery et al. [35]; score = smoothed max absorbance of the antibody sample minus that of the average blank (PBS); scores >=11 considered high
Conditions: other: AC-SINS
In the case of B1, the AC-SINS Score is reported as 24. B10 showed an AC-SINS Score of 4.

Target: T1, human PDGF-BB (platelet derived growth …)
Assay: SPR; Biacore T200, full kinetics; antibody captured by anti-human IgG on a CM5 chip; human PDGF-BB at 20, 10, 5, 2.5 and 1.25 nM, 50 s injection; HBS-EP+ N; 25 C; 1:1 Langmuir fit
Conditions: both partners purified
B1 gave a Kd of 0.102 ± 0.0323 nM, a koff of 0.000292 s⁻¹ and a kon of 3.09e+06 M⁻¹ s⁻¹. In the case of B10, the Kd is reported as 0.299 ± 0.00683 nM, the koff is reported as 0.00061 s⁻¹ and the kon is reported as 2.04e+06 M⁻¹ s⁻¹.
